This note sets out measurements from paper PMC7763993, “Depletion of Boric Acid and Cobalt from Cultivation Media: Impact on Recombinant Protein Production with Komagataella phaffii” (Bioengineering, 2020).

What is called Km is the concentration of substrate that gives half-maximal velocity.

Substrate in this data set: CCn1c(=NN=c2sc3cc(S(=O)(=O)O)ccc3n2CC)sc2cc(S(=O)(=O)O)ccc21
The experiment in a line: purified protein. The data set is classed as biochemical, Armoracia rusticana. The note with it: H2O2 co-substrate, 50 mM phosphate citrate pH 5, 30 °C, 0.05-7 mM ABTS, enzyme from cultivation F5 (glass, with Co and boric acid).

B1: horseradish peroxidase isoenzyme A2A (HRP) (Armoracia rusticana) (protein)
chain: QLNATFYSGTCPNASAIVRSTIQQAFQSDTRIGASLIRLHFHDCFVDGCDASILLDDSGSIQSEKNAGPNANSARGFNVVDNIKTALENTCPGVVSCSDILALASEASVSLTGGPSWTVLLGRRDSLTANLAGANSAIPSPFEGLSNITSKFSAVGLNTNDLVALSGAHTFGRARCGVFNNRLFNFSGTNGPDPTLNSTLLSSLQQLCPQNGSASTITNLDLSTPDAFDNNYFANLQSNNGLLQSDQELFSTLGSATIAVVTSFASNQTLFFQAFAQSMINMGNISPLTGSNGEIRLDCKKVDGS
notes: secreted from K. phaffii BSYBG11 MutS, codon-optimized gene; glycosylated, negative AIEX flow-through; monomeric, 2 calcium, heme
On to B1, for which the Km was determined as 2110 ± 350 µM.
